Assay results as given in PMC5749889.

Target: light-harvesting complexes of G. phototrophica (light-harvesting antenna subunits, B868 inner ring and B816 outer ring) (G. phototrophica (endogenous in strain AP64))
Assay: negative-stain TEM with single particle analysis; freshly purified complexes on carbon-coated copper grids, 1.5% uranyl acetate, 200 kV, 2D class averages in RELION

stoichiometry N: 15
Substance: light-harvesting complexes of G. phototrophica (light-harvesting antenna subunits, B868 inner ring and B816 outer ring)
